From PMC4072727, “Selection and Characterization of a DNA Aptamer That Can Discriminate between cJun/cJun and cJun/cFos”

B1: aptamer-19(12-74) (structured_DNA)
DNA: TACGGCACCGTATAGTCGTACATGAACGAGTGTGAGTGTTAAGCCTTTGGCGACAGGGCTCGG
B2: aptamer-1 (structured_DNA)
DNA: GGGAGATCACTTACGGCACCAGTCGTCGTTACTGCATTGCTCTATGGAGTATAAGCCCTGCGACAGGGCTCGGAACC
B3: AP-1 DNA (dsDNA)
DNA 1: AGGTCGTGACTCAGCGG
DNA 2: CCGCTGAGTCACGACCT
B4: aptamer-16 (structured_DNA)
DNA: GGGAGATCACTTACGGCACCCGGAGGGTCGTTACCCACTGTTTGTTGGTATAAAGCCTGGCGACAGGGCTCGGAACC
B5: mutant AP-1 decoy (hairpin) (structured_DNA)
DNA: GTCCAAATCTCAGAAGAGACACACTCTTCTGAGATTTGGAC
B6: aptamer-27 (structured_DNA)
DNA: GGGAGATCACTTACGGCACCAACGTCTCGTTGGTCGTTCCAGCGTTCTAGATGGATTCAGGCGACAGGGCTCGGAACC
B7: aptamer-19 (structured_DNA)
DNA: GGGAGATCACTTACGGCACCGTATAGTCGTACATGAACGAGTGTGAGTGTTAAGCCTTTGGCGACAGGGCTCGGAACC
B8: AP-1 DNA decoy (hairpin) (structured_DNA)
DNA: GTCCATGACTCAGAAGAGACACACTCTTCTGAGTCATGGAC

Tests used:
[1] = molecular target: T1, cJun (cJun/cJun homodimer) (UniProt P05412 1-331, C269S); assay: EMSA; EMSA: 100 mM KCl, 4 mM MgCl2, 20 mM Tris pH 7.9, 20 mM HEPES pH 7.9, 10% glycerol, 0.1 mM DTT, 60 ug/ml BSA, 0.06% NP-40, 50 ng poly(dI-dC), on ice; 50 pM 32P-D; details: protein: recombinant, chain copies: 2
[2] = molecular target: T1, cJun (cJun/cJun homodimer); assay: EMSA; 0.4-6.5 nM; low or sub-nanomolar; EMSA: 100 mM KCl, 4 mM MgCl2, 20 mM Tris pH 7.9, 20 mM HEPES pH 7.9, 10% glycerol, 0.1 mM DTT, 60 ug/ml BSA, 0.06% NP-40, 50 ng poly(dI-dC), on ice; 50 pM 32P-D; details: protein: recombinant; chain copies: 2; label: 5'-FAM or 32P
[3] = molecular target: T2, cJun (cJun/cJun homodimer);cFos (in cJun/cFos heterodimer) (;, UniProt P05412;P01100 1-331;1-380, C269S|C154S); assay: EMSA; 0.4-6.5 nM protein; EMSA: 100 mM KCl, 4 mM MgCl2, 20 mM Tris pH 7.9, 20 mM HEPES pH 7.9, 10% glycerol, 0.1 mM DTT, 60 ug/ml BSA, 0.06% NP-40, 50 ng poly(dI-dC), on ice; 50 pM 32P-D; details: protein: recombinant;recombinant; tags: ;6His; copies: 1;1; label: 5'-FAM or 32P
[4] = molecular target: T2, cJun (cJun/cJun homodimer);cFos (in …); assay: EMSA; higher affinity than cJun/cJun; EMSA: 100 mM KCl, 4 mM MgCl2, 20 mM Tris pH 7.9, 20 mM HEPES pH 7.9, 10% glycerol, 0.1 mM DTT, 60 ug/ml BSA, 0.06% NP-40, 50 ng poly(dI-dC), on ice; 50 pM 32P-D; details: protein: recombinant;recombinant; tags: ;6His; copies: 1;1; label: 32P or 5'-Cy5; blunt
[5] = molecular target: T1, cJun (cJun/cJun homodimer); assay: competition; vs Cy5-labeled AP-1 DNA; EMSA: 100 mM KCl, 4 mM MgCl2, 20 mM Tris pH 7.9, 20 mM HEPES pH 7.9, 10% glycerol, 0.1 mM DTT, 60 ug/ml BSA, 0.06% NP-40, 50 ng poly(dI-dC), on ice; 50 pM 32P-D; details: protein: recombinant; chain copies: 2; hairpin
[6] = molecular target: T1, cJun (cJun/cJun homodimer); assay: DNase I footprinting; broad protection; EMSA: 100 mM KCl, 4 mM MgCl2, 20 mM Tris pH 7.9, 20 mM HEPES pH 7.9, 10% glycerol, 0.1 mM DTT, 60 ug/ml BSA, 0.06% NP-40, 50 ng poly(dI-dC), on ice; 50 pM 32P-D; details: protein: recombinant; chain copies: 2; label: 32P; three stem-loops, nt 13-68

Binder	binding result [2]	binding result [3]	also measured
B1			Kd ([1]; label: 32P, three stem-loops, nt 13-68): 0.5 nM
B2	binds	no binding	
B3			binding result [4]: binds; Kd ([1]; label: 32P or 5'-Cy5, blunt): ~15 nM
B4	binds	no binding	
B5			binding result [5]: no binding
B6	binds	no binding	
B7			binding result [6]: binds
B8			binding result [5]: binds
